Molecular target: Fc-binding nanodisc F-ND_(P2N2), made with F-MSP2N2
Test: SEC

Substance: immunoglobulin G (IgG) (antibody)
- stoichiometry N: 1 molar ratio

Reference: article PMC11761773
